Test results as given in patent EP4772613A1 (GI Cell, Inc., dated 2026).

Experiments:
[1] = target: T1, IL-2Rβ-his (Acro CD2-H5221) (UniProt P14784 27-239); test: Octet BLI; IL-2Rβ-his on Ni-NTA sensor, analyte 2,000 to 31.25 nM
T1 construct: also called CD122; not shown: his tag
T1 sequence (looked up): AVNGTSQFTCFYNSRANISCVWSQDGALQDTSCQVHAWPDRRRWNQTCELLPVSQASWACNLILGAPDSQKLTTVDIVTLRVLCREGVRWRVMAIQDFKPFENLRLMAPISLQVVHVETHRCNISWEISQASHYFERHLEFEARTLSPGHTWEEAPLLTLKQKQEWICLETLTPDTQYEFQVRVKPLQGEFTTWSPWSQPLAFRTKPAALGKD

[2] = target: T2, IL-2Rβ and common γ chain on HEK-Blue CD122/132 cells (InvivoGen hkb-il2bg) (UniProt P14784 27-551; P31785 23-369, limits assumed); test: cell-based or functional assay
T2 sequence (looked up) 1: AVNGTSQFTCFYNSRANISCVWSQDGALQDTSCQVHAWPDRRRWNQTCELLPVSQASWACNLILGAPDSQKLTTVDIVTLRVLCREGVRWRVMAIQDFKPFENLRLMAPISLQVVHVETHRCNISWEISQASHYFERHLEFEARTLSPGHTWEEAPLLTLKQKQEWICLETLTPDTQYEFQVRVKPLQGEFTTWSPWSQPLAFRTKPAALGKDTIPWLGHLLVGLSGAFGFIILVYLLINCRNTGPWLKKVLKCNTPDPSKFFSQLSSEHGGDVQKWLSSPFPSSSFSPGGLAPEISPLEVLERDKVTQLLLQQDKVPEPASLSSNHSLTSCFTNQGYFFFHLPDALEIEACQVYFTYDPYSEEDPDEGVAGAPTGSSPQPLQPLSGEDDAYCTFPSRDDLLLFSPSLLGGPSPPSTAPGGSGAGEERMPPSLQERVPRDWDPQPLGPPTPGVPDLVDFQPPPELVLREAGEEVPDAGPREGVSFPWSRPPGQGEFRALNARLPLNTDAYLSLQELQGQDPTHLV
T2 sequence (looked up) 2: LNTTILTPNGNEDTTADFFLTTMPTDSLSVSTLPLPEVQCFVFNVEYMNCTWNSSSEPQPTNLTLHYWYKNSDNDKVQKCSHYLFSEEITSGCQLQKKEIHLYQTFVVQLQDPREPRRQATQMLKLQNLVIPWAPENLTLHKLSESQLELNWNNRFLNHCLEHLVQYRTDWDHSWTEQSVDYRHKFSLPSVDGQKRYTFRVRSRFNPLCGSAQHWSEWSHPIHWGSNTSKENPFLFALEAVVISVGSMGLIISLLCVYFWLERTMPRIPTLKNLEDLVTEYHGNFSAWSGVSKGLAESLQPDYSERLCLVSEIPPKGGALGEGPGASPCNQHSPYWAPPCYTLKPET

B1: GIC-982C1 (IL-2/IL-15) (Fc fusion)
chain: GSAESKYGPPCPPCPAPEAAGGPSVFLFPPKPKDQLMISRTPEVTCVVVDVSQEDPEVQFNWYVDGVEVHNAKTKPREEQFNSTYRVVSVLTVLHQDWLNGKEYKCKVSNKGLPSSIEKTISKAKGQPREPQVYTLPPSQEEMTKNQVSLTCLVKGFYPSDIAVEWESNGQPENNYKTTPPVLDSDGSFFLYSRLTVDKSRWQEGNVFSCSVLHEALHNHYTQKSLSLSLGGGGGSGGGGSITCPPPMSVEHADIWVKSYSLYSRERYICNSGFKRKAGTSSLTECVLNKATNVAHWTTPSLKCIRGGGGSGGGGSGGGGSGGGGSAPTSSSTKKTQLQLEHLLLDLQMILNGSMHIDATLYTESDVHPSCKVTAMKCFLLELQVISLESKNFHLRPRDLISNINVIVLELKGSNGNVTESGCKECEELEEKNIVEFLNRWITFCQSIISTLT
With B1 the Kd [1] was 387 nM, the koff [1] was 0.000335 s⁻¹ and the kon [1] was 866 M⁻¹ s⁻¹. For the same binder, the “EC50 (ng/ml), STAT5 activity, HEK-Blue CD122/132 reporter cells” value (“EC50 (ng/ml), STAT5 activity” for short) [2] was 1730 ng/mL.

B2: GIC-982C2 (IL-2/IL-15v1) (D73E) (Fc fusion)
chain: GSAESKYGPPCPPCPAPEAAGGPSVFLFPPKPKDQLMISRTPEVTCVVVDVSQEDPEVQFNWYVDGVEVHNAKTKPREEQFNSTYRVVSVLTVLHQDWLNGKEYKCKVSNKGLPSSIEKTISKAKGQPREPQVYTLPPSQEEMTKNQVSLTCLVKGFYPSDIAVEWESNGQPENNYKTTPPVLDSDGSFFLYSRLTVDKSRWQEGNVFSCSVLHEALHNHYTQKSLSLSLGGGGGSGGGGSITCPPPMSVEHADIWVKSYSLYSRERYICNSGFKRKAGTSSLTECVLNKATNVAHWTTPSLKCIRGGGGSGGGGSGGGGSGGGGSAPTSSSTKKTQLQLEHLLLDLQMILNGSMHIDATLYTESDVHPSCKVTAMKCFLLELQVISLESKNFHLRPRELISNINVIVLELKGSNGNVTESGCKECEELEEKNIVEFLNRWITFCQSIISTLT
notes: the entry already holds the change
Binder B2 has a Kd [1] of 215 nM, a koff [1] of 0.000148 s⁻¹ and a kon [1] of 686 M⁻¹ s⁻¹. For the same binder, the “EC50 (ng/ml), STAT5 activity” value [2] was 1080 ng/mL.

B3: GIC-982C4 (IL-2/IL-15v3) (S76D) (Fc fusion)
chain: GSAESKYGPPCPPCPAPEAAGGPSVFLFPPKPKDQLMISRTPEVTCVVVDVSQEDPEVQFNWYVDGVEVHNAKTKPREEQFNSTYRVVSVLTVLHQDWLNGKEYKCKVSNKGLPSSIEKTISKAKGQPREPQVYTLPPSQEEMTKNQVSLTCLVKGFYPSDIAVEWESNGQPENNYKTTPPVLDSDGSFFLYSRLTVDKSRWQEGNVFSCSVLHEALHNHYTQKSLSLSLGGGGGSGGGGSITCPPPMSVEHADIWVKSYSLYSRERYICNSGFKRKAGTSSLTECVLNKATNVAHWTTPSLKCIRGGGGSGGGGSGGGGSGGGGSAPTSSSTKKTQLQLEHLLLDLQMILNGSMHIDATLYTESDVHPSCKVTAMKCFLLELQVISLESKNFHLRPRDLIDNINVIVLELKGSNGNVTESGCKECEELEEKNIVEFLNRWITFCQSIISTLT
notes: as for B2
B3 was tested, and the Kd [1] was 144 nM, the koff [1] was 0.000338 s⁻¹ and the kon [1] was 2350 M⁻¹ s⁻¹. For the same binder, the “EC50 (ng/ml), STAT5 activity” value [2] was 255 ng/mL.

B4: GIC-982C12 (IL-2/IL-15v11) (D73E, L74F, S76D, N77D, V80L) (Fc fusion)
chain: GSAESKYGPPCPPCPAPEAAGGPSVFLFPPKPKDQLMISRTPEVTCVVVDVSQEDPEVQFNWYVDGVEVHNAKTKPREEQFNSTYRVVSVLTVLHQDWLNGKEYKCKVSNKGLPSSIEKTISKAKGQPREPQVYTLPPSQEEMTKNQVSLTCLVKGFYPSDIAVEWESNGQPENNYKTTPPVLDSDGSFFLYSRLTVDKSRWQEGNVFSCSVLHEALHNHYTQKSLSLSLGGGGGSGGGGSITCPPPMSVEHADIWVKSYSLYSRERYICNSGFKRKAGTSSLTECVLNKATNVAHWTTPSLKCIRGGGGSGGGGSGGGGSGGGGSAPTSSSTKKTQLQLEHLLLDLQMILNGSMHIDATLYTESDVHPSCKVTAMKCFLLELQVISLESKNFHLRPREFIDDINLIVLELKGSNGNVTESGCKECEELEEKNIVEFLNRWITFCQSIISTLT
notes: the entry already holds the changes
Work on B4 yielded a Kd [1] of 265 nM, a koff [1] of 9.11e-05 s⁻¹ and a kon [1] of 344 M⁻¹ s⁻¹.

B5: GIC-982C14 (IL-2/IL-15v7) (S76N) (Fc fusion)
chain: GSAESKYGPPCPPCPAPEAAGGPSVFLFPPKPKDQLMISRTPEVTCVVVDVSQEDPEVQFNWYVDGVEVHNAKTKPREEQFNSTYRVVSVLTVLHQDWLNGKEYKCKVSNKGLPSSIEKTISKAKGQPREPQVYTLPPSQEEMTKNQVSLTCLVKGFYPSDIAVEWESNGQPENNYKTTPPVLDSDGSFFLYSRLTVDKSRWQEGNVFSCSVLHEALHNHYTQKSLSLSLGGGGGSGGGGSITCPPPMSVEHADIWVKSYSLYSRERYICNSGFKRKAGTSSLTECVLNKATNVAHWTTPSLKCIRGGGGSGGGGSGGGGSGGGGSAPTSSSTKKTQLQLEHLLLDLQMILNGSMHIDATLYTESDVHPSCKVTAMKCFLLELQVISLESKNFHLRPRDLINNINVIVLELKGSNGNVTESGCKECEELEEKNIVEFLNRWITFCQSIISTLT
B5 gave a Kd [1] of 327 nM, a koff [1] of 0.000223 s⁻¹ and a kon [1] of 686 M⁻¹ s⁻¹. The “EC50 (ng/ml), STAT5 activity” value [2] was 997 ng/mL.

B6: GIC-982C3 (IL-2/IL-15v2) (L74F) (Fc fusion)
chain: GSAESKYGPPCPPCPAPEAAGGPSVFLFPPKPKDQLMISRTPEVTCVVVDVSQEDPEVQFNWYVDGVEVHNAKTKPREEQFNSTYRVVSVLTVLHQDWLNGKEYKCKVSNKGLPSSIEKTISKAKGQPREPQVYTLPPSQEEMTKNQVSLTCLVKGFYPSDIAVEWESNGQPENNYKTTPPVLDSDGSFFLYSRLTVDKSRWQEGNVFSCSVLHEALHNHYTQKSLSLSLGGGGGSGGGGSITCPPPMSVEHADIWVKSYSLYSRERYICNSGFKRKAGTSSLTECVLNKATNVAHWTTPSLKCIRGGGGSGGGGSGGGGSGGGGSAPTSSSTKKTQLQLEHLLLDLQMILNGSMHIDATLYTESDVHPSCKVTAMKCFLLELQVISLESKNFHLRPRDFISNINVIVLELKGSNGNVTESGCKECEELEEKNIVEFLNRWITFCQSIISTLT
notes: as for B2
B6 was tested, and the Kd [1] was 302 nM, the koff [1] was 0.000481 s⁻¹ and the kon [1] was 1590 M⁻¹ s⁻¹. For the same binder, the “EC50 (ng/ml), STAT5 activity” value [2] was 9740 ng/mL.

B7: GIC-982C6 (IL-2/IL-15v5) (V80L) (Fc fusion)
chain: GSAESKYGPPCPPCPAPEAAGGPSVFLFPPKPKDQLMISRTPEVTCVVVDVSQEDPEVQFNWYVDGVEVHNAKTKPREEQFNSTYRVVSVLTVLHQDWLNGKEYKCKVSNKGLPSSIEKTISKAKGQPREPQVYTLPPSQEEMTKNQVSLTCLVKGFYPSDIAVEWESNGQPENNYKTTPPVLDSDGSFFLYSRLTVDKSRWQEGNVFSCSVLHEALHNHYTQKSLSLSLGGGGGSGGGGSITCPPPMSVEHADIWVKSYSLYSRERYICNSGFKRKAGTSSLTECVLNKATNVAHWTTPSLKCIRGGGGSGGGGSGGGGSGGGGSAPTSSSTKKTQLQLEHLLLDLQMILNGSMHIDATLYTESDVHPSCKVTAMKCFLLELQVISLESKNFHLRPRDLISNINLIVLELKGSNGNVTESGCKECEELEEKNIVEFLNRWITFCQSIISTLT
notes: as for B2
In the case of B7, the Kd [1] is reported as 386 nM, the koff [1] is reported as 0.000435 s⁻¹ and the kon [1] is reported as 1130 M⁻¹ s⁻¹. The “EC50 (ng/ml), STAT5 activity” value [2] was 723 ng/mL.

B8: GIC-982C5 (IL-2/IL-15v4) (N77D) (Fc fusion)
chain: GSAESKYGPPCPPCPAPEAAGGPSVFLFPPKPKDQLMISRTPEVTCVVVDVSQEDPEVQFNWYVDGVEVHNAKTKPREEQFNSTYRVVSVLTVLHQDWLNGKEYKCKVSNKGLPSSIEKTISKAKGQPREPQVYTLPPSQEEMTKNQVSLTCLVKGFYPSDIAVEWESNGQPENNYKTTPPVLDSDGSFFLYSRLTVDKSRWQEGNVFSCSVLHEALHNHYTQKSLSLSLGGGGGSGGGGSITCPPPMSVEHADIWVKSYSLYSRERYICNSGFKRKAGTSSLTECVLNKATNVAHWTTPSLKCIRGGGGSGGGGSGGGGSGGGGSAPTSSSTKKTQLQLEHLLLDLQMILNGSMHIDATLYTESDVHPSCKVTAMKCFLLELQVISLESKNFHLRPRDLISDINVIVLELKGSNGNVTESGCKECEELEEKNIVEFLNRWITFCQSIISTLT
notes: as for B2
B8 gave a Kd [1] of 1290 nM, a koff [1] of 0.000313 s⁻¹ and a kon [1] of 242 M⁻¹ s⁻¹.

B9: GIC-982C13 (IL-2/IL-15v6) (S76E) (Fc fusion)
chain: GSAESKYGPPCPPCPAPEAAGGPSVFLFPPKPKDQLMISRTPEVTCVVVDVSQEDPEVQFNWYVDGVEVHNAKTKPREEQFNSTYRVVSVLTVLHQDWLNGKEYKCKVSNKGLPSSIEKTISKAKGQPREPQVYTLPPSQEEMTKNQVSLTCLVKGFYPSDIAVEWESNGQPENNYKTTPPVLDSDGSFFLYSRLTVDKSRWQEGNVFSCSVLHEALHNHYTQKSLSLSLGGGGGSGGGGSITCPPPMSVEHADIWVKSYSLYSRERYICNSGFKRKAGTSSLTECVLNKATNVAHWTTPSLKCIRGGGGSGGGGSGGGGSGGGGSAPTSSSTKKTQLQLEHLLLDLQMILNGSMHIDATLYTESDVHPSCKVTAMKCFLLELQVISLESKNFHLRPRDLIENINVIVLELKGSNGNVTESGCKECEELEEKNIVEFLNRWITFCQSIISTLT
Work on B9 yielded a Kd [1] of 105 nM, a koff [1] of 0.000204 s⁻¹ and a kon [1] of 1930 M⁻¹ s⁻¹. The “EC50 (ng/ml), STAT5 activity” value [2] was 1390 ng/mL.
